Results on 33 sequences are retold here after the supplement of paper PMC7877785.

This data set is described as follows: self-splicing fitness, log relative to wild type (ln ratio); higher = more splicing; Tetrahymena group I intron in knt gene, E. coli kanamycin selection, DiMSum; sequences stand for … in CUCUCU…GGAGGGAAAAGUUAUCAGGCAUGCACCUGGUAGCUAGUCUUUAAACCAAUAGAUUGCAUCGGUUUAAAAGGCAAGACCGUCAAAUUGCGGGAAAGGGGUCAACAGCCGUUCAGUACCAAGUCUCAGGGGAAACUUUGAGAUGGCCUUGCAAAGGGUAUGGUAAUAAGCUGACGGACAUGGUCCUAACCACGCAGCCAAGUCCUAAGUCAACAGAUCUUCUGUUGAUAUGGAUGCAGUUCACAGACUAAAUGUCGGUCGGGGAAGAUGUAUUCUUCUCAUAAGAUAUAGUCGGACCUCUCCUUAAUGGGAGCUAGCGGAUGAAGUGAUGCAACACUGGAGCCGCUGGGAACUAAUUUGUAUGCGAAAGUAUAUUGAUUAGUUUUGGAGUACUCGUGGUCG
An outline of the steps:
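DiMSum derived fitness as the error-weighted combination of fold changes across replicates, kanamycin versus no kanamycin, normalised to wild type. E. coli BL21(DE3) held the library, which randomised all eight P1ex-region intron nucleotides within the knt kanamycin-resistance gene on pET-22b(+). Six replicate transformations grew overnight at 37°C or 30°C on LB agar with or without 25 μg/mL kanamycin, also containing 100 μg/mL carbenicillin, 50 μM IPTG and 0.2% rhamnose, and pooled colonies were amplicon-sequenced on an Illumina HiSeq 2500.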

± gives the uncertainty stated by the source.

Turning to UACAAGCAAUAUUACGACUG, the “self-splicing fitness (ln)” value (30 °C) is -0.079 ± 0.063 and the “self-splicing fitness (ln)” value (37 °C) was 0.278 ± 0.092.
The corresponding values for UACAAGCAAUAUUACGAGCA are -0.289 ± 0.067 and -0.0424 ± 0.075.
For UACAAGCAAUAUUACGAGUU the same measures were -2.14 ± 0.069 and -0.96 ± 0.074.
UACAAGCAAUAUUACGCCAU: the “self-splicing fitness (ln)” value (30 °C) was -3.15 ± 0.17 and the “self-splicing fitness (ln)” value (37 °C) was -2.62 ± 0.22.
In the case of UACAAGCAAUAUUACGCCCC, under “30 °C”, the “self-splicing fitness (ln)” value was -2.04 ± 0.49.
For the sequence UACAAGCAAUAUUACGCGUC, the “self-splicing fitness (ln)” value reads like this: (30 °C) -2.06 ± 0.1; (37 °C) -1.23 ± 0.14.
For UACAAGCAAUAUUACGCUCA the same measures were -0.545 ± 0.087 and -0.0026 ± 0.12.
For UACAAGCAAUAUUACGCUGA the same measures were -2.32 ± 0.13 and -1.78 ± 0.13.
As for UACAAGCAAUAUUACGGAAA, the “self-splicing fitness (ln)” value is -2.07 ± 0.24 (30 °C) and -1.99 ± 0.27 (37 °C).
For UACAAGCAAUAUUACGGCAU the same measures were -1.49 ± 0.068 and -0.705 ± 0.072.
The corresponding values for UACAAGCAAUAUUACGGCCC are -1.69 ± 0.31 and -1.35 ± 0.44.
The corresponding values for UACAAGCAAUAUUACGGCCU are -1.09 ± 0.094 and -0.547 ± 0.13.
In the case of UACAAGCAAUAUUACGGCUU, the “self-splicing fitness (ln)” value is -3.99 ± 0.16 (30 °C) and -2.37 ± 0.15 (37 °C).
UACAAGCAAUAUUACGGGAA: the “self-splicing fitness (ln)” value was -2.41 ± 0.12 (30 °C) and -1.6 ± 0.097 (37 °C).
As for UACAAGCAAUAUUACGGGGA, the “self-splicing fitness (ln)” value (30 °C) was -1.5 ± 0.12 and the “self-splicing fitness (ln)” value (37 °C) is -1.09 ± 0.13.
Regarding UACAAGCAAUAUUACGGUCG, the “self-splicing fitness (ln)” value was -0.0495 ± 0.068 (30 °C) and -0.0985 ± 0.1 (37 °C).
For UACAAGCAAUAUUACGGUCU the same measures were -1.52 ± 0.052 and -0.534 ± 0.065.
The corresponding values for UACAAGCAAUAUUACGGUGA are -1.28 ± 0.082 and -0.89 ± 0.1.
The corresponding values for UACAAGCAAUAUUACGUCCC are -1.25 ± 0.39 and -1.58 ± 0.42.
UACAAGCAAUAUUACGUCCG: the “self-splicing fitness (ln)” value is -0.564 ± 0.068 (30 °C) and -0.0254 ± 0.091 (37 °C).
For UACAAGCAAUAUUACGUGAC the same measures were -3.89 ± 0.18 and -1.85 ± 0.1.
For UACAAGCAAUAUUACGUUUU the same measures were -3.05 ± 0.11 and -2.32 ± 0.12.
Turning to UACCAGCAAUAUUACGAUCG, the “self-splicing fitness (ln)” value is, setting by setting: (30 °C) -0.0679 ± 0.046; (37 °C) -0.31 ± 0.06.
The corresponding values for UACCAGCAAUAUUACGCCUC are -2.32 ± 0.19 and -0.554 ± 0.18.
For UACCAGCAAUAUUACGCGGU, the “self-splicing fitness (ln)” value was -4.05 ± 0.17 (30 °C) and -3.47 ± 0.2 (37 °C).
The corresponding values for UACCAGCAAUAUUACGGAAU are -2.32 ± 0.093 and -1.5 ± 0.1.
The corresponding values for UACCAGCAAUAUUACGGAGC are -3 ± 0.15 and -3.22 ± 0.27.
For UACCAGCAAUAUUACGGAUC, the “self-splicing fitness (ln)” value reads like this: (30 °C) -1.46 ± 0.058; (37 °C) 0.242 ± 0.084.
The corresponding values for UACCAGCAAUAUUACGGGCC are -2.22 ± 0.1 and -1.2 ± 0.11.
The corresponding values for UACCAGCAAUAUUACGGGCG are -0.359 ± 0.072 and -0.277 ± 0.079.
The corresponding values for UACCAGCAAUAUUACGGGUC are -2.46 ± 0.13 and -1.99 ± 0.18.
UACCAGCAAUAUUACGGUCG: the “self-splicing fitness (ln)” value (30 °C) is -0.769 ± 0.064 and the “self-splicing fitness (ln)” value (37 °C) was 0.485 ± 0.091.
For UACCAGCAAUAUUACGGUUU the same measures were -0.896 ± 0.056 and -0.463 ± 0.065.
